# Earlier results, collected in patent publication EP3906935A1, “PEPTIDES FOR PREVENTING OR TREATING VIRAL INFECTIONS” (SORBONNE UNIVERSITE, priority 2020, dated 2021).
# Settings: N- and C-protected peptide; experimental data reported by Zhou et al.
substance,measurement,value
"Ac-EAEKAAKEAEKAAKEAEK-NH2 [SEQ ID NO: 146, peptide of eighteen residues with N- and C-protected extremities previously built by Zhou et al]",content of amphipathic helical structure in solution,65%
